4 substances from publication doi:10.1101/636563 can be followed below.

One assay deals with KRas wild-type (UniProt P01116). Description: ITC. A general note: ITC needs no label: the signal is the heat of the interaction.
The target in assay [1] is KRas G12D, site-specifically mono-biotinylated by sortase-mediated ligation (GDP-loaded) (UniProt P01116). Description: SPR.
The target in assay [2] is KRas G12D (GDP-loaded) (UniProt P01116). Description: ITC.
Assay [3] shares this target. Description: thermal shift assay.

Bounds are passed on as bounds.

For orientation: Kd means a measure of binding affinity in units of concentration. Read a high Kd as weaker binding. By stoichiometry N is commonly meant the number of molecules, sites or subunits per partner or assembly. In the assay with KRas wild-type, “Raf-RBD (from UniProt P04049 56-131) (domain or fragment)” yielded a Kd of 6 nM and a stoichiometry N of 0.554.
As to cyclorasin 9A5 (peptide), in assay [1], the Kd is more than 1000 nM.
“SAH-SOS1A (from UniProt Q07889 929-944) (peptide)” came in with a Kd in assay [1] of more than 1000 nM.
What is called ΔTm is the shift of the melting midpoint relative to a reference. Turning to KRpep-2d (peptide), in the assay with KRas G12D (GDP-loaded) [2], the Kd turned out to be 21 nM and the stoichiometry N was 0.625. Moreover, in the assay with KRas G12D (GDP-loaded) [3], the ΔTm came out at 11.5 °C.
